The values that follow come from US20230048360A1.

In assay [1] the target is cell surface-bound human GPC3 on GPC3+ HepG2 cells (human) (UniProt P51654). Nature of the assay: FACS, helper phage on GPC3+ HepG2 cells, mouse anti-M13 then PE anti-mouse IgG; same sample shown in all panels of FIGS. 1A-1G.
Assay [2] has the same target. The assay can be described thus: FACS, control (helper) phage on GPC3+ HepG2 cells, anti-M13 then PE anti-mouse IgG; same sample in FIGS. 2A-2E.
Assay [3] has the same target. Nature of the assay: FACS, control (helper) phage on GPC3+ HepG2 cells, anti-M13 then PE anti-mouse IgG; same sample in FIGS. 3A-3D. In general terms: In flow cytometry, cells or beads pass a laser one at a time.
Assay [4] shares this target. Nature of the assay: FACS, control mIgG1 on GPC3-positive HepG2 cells, PE anti-mouse IgG (H and L).

As to Negative control (helper phage), the results for the Median : PE-A in assay [1], in assay [2] and in assay [3] were 99.4, 556 and 106, respectively.

On to control mIgG1 (antibody), for which the Median : PE-A in assay [4] was 93.8.
